Three molecules from article PMC10208570 (2023) can be followed below.

Read-outs that look alike come from different tables or passages of the source. Bridges are numbered along the chain shown (N, C = ends). Where no end group is shown, it is not given here.

What all share (experiment): FP
Assay [1] addresses T1, LptAm^Q62L (E. coli) (E. coli (ATCC 25922)).
T1 chain: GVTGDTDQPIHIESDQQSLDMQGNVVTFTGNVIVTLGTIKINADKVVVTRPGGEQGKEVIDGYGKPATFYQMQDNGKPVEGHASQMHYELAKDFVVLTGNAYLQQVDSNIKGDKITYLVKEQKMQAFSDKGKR

The target of assay [2] is T2, LptAm (E. coli), monomeric truncated variant of LptA (E. coli (ATCC 25922)).
T2 chain: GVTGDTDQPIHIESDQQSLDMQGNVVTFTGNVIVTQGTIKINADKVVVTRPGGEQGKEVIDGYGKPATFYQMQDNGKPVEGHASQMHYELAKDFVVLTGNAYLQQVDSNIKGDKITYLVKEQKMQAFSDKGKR

Assay [3] addresses T3, K. pneumoniae LptAm (K. pneumoniae (ATCC 13883)).
T3 chain: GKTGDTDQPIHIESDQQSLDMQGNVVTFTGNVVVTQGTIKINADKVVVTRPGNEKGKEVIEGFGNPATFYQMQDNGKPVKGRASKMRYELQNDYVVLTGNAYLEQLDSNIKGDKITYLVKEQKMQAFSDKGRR

For a further assay, the target named is K. pneumoniae LptAm^Q62L (K. pneumoniae (ATCC 13883)).
For assay [4], the target named is T1, LptAm^Q62L (E. coli).
The target in assay [5] is T2, LptAm (E. coli), monomeric truncated ….
For assay [6], the target named is T3, K. pneumoniae LptAm.
Assay [7] addresses T1, LptAm^Q62L (E. coli).
Assay [8] deals with T2, LptAm (E. coli), monomeric truncated ….

As a reminder, the Ki is the dissociation constant of the complex between target and ligand, obtained from inhibition or displacement. Read a low Ki as tighter binding. For orientation: IC50 means the concentration that inhibits the measured activity by half. A lower IC50 goes with greater potency in that assay. For the molecule KKPVPIIYCNRRTGKCQRM (disulfide 9-16 (inferred)) [peptide 1], the inhibitory constant (Ki) was determined as 20.5 nM in the assay with LptAm^Q62L (E. coli) [1], 1.1 nM in assay [2], 0.9 nM with K. pneumoniae LptAm [3] and 18.2 nM in the assay with K. pneumoniae LptAm^Q62L. In addition, the half-inhibitory concentration (IC50) in the assay with K. pneumoniae LptAm^Q62L is 20.8 nM; with LptAm^Q62L (E. coli) [4] it was 30.4 nM; in [5] it was 6.6 nM; with K. pneumoniae LptAm [6], 9.6 nM.

B1: mLptA (E. coli), LptA(25-185) E39V M47A R76A (domain or fragment)
chain: GAFAVTGDTDQPIHIVSDQQSLDAQGNVVTFTGNVIVTQGTIKINADKVVVTAPGGEQGKEVIDGYGKPATFYQMQDNGKPVEGHASQMHYELAKDFVVLTGNAYLQQVDSNIKGDKITYLVKEQKMQAFSDKGKRVTTVLVPSQLQDKNNKGQTPAQKKGN
Consider B1, for which the figures for the IC50 (with LptAm^Q62L (E. coli) [7]; in assay [8]) were 102 nM and 213 nM, respectively.
For GSKKPVPIIYCNRRTGKCQRM [Thanatin], the IC50 with LptAm^Q62L (E. coli) [4] was found to be 50 nM.
